B1: LINE1-mini (parent)
chain: GGCAGAGCUCAACACAGCGUGGCAAAGUGGCUGUGGCUAGACUGCC

Variants of: B1
Assay: self-cleavage, relative activity (ratio to wild type); higher = more cleavage; in vitro, sequencing; the parent is a self-cleaving ribozyme

Q: With U38G G44C as the variant, how does the self-cleavage read?
A: 0.06

Q: For A12U C15G, which self-cleavage is on record?
A: 0.06

Q: Which self-cleavage does the source give for A26G C46G here?
A: 1.53

Q: For G33U G35U, which self-cleavage is on record?
A: 0.11

Q: Which self-cleavage does the source give for G33U G35A here?
A: 0.08

Q: Which self-cleavage does the source give for C23A A39C here?
A: 0.27

Q: With G1C U32A as the variant, how does the self-cleavage read?
A: 0.02

Q: For U9G G44U, which self-cleavage is on record?
A: 0.08

Q: With A6G G30A as the variant, how does the self-cleavage read?
A: 0.19

Q: With G22A G40U as the variant, how does the self-cleavage read?
A: 0.12

Q: Which self-cleavage does the source give for G2A C13G here?
A: 0.45

Q: For C3U A25U, which self-cleavage is on record?
A: 0.52

Q: Which self-cleavage does the source give for G44C C46U here?
A: 0.14

Q: For C18A G35U, which self-cleavage is on record?
A: 0.07

Q: For G17U G27C, which self-cleavage is on record?
A: 0.22

Q: Which self-cleavage does the source give for G5A U9A here?
A: 0.35

Q: With C15G G22C as the variant, how does the self-cleavage read?
A: 0.03

Q: With A24G C45U as the variant, how does the self-cleavage read?
A: 1.23

Q: With A6C U28G as the variant, how does the self-cleavage read?
A: 0.2

Q: Which self-cleavage does the source give for A11U here?
A: 0.15

Q: With A26U G44U as the variant, how does the self-cleavage read?
A: 0.41

Q: Which self-cleavage does the source give for A24U G36C here?
A: 0.11

Q: With G5A G30C as the variant, how does the self-cleavage read?
A: 0.12

Q: For U9A G30C, which self-cleavage is on record?
A: 0.1

Q: Which self-cleavage does the source give for G33C C42A here?
A: 0.06

Q: For U9A G33A, which self-cleavage is on record?
A: 0.11

Q: With G2A C46A as the variant, how does the self-cleavage read?
A: 1.23

Q: Which self-cleavage does the source give for U28A G30C here?
A: 0.62

Q: With A6G G33C as the variant, how does the self-cleavage read?
A: 0.03

Q: With G35A C45A as the variant, how does the self-cleavage read?
A: 0.13

Q: For G33C U34A, which self-cleavage is on record?
A: 0.09

Q: For C8A A25C, which self-cleavage is on record?
A: 0.45

Q: For A16G G30U, which self-cleavage is on record?
A: 0.31

Q: For G27A G36U, which self-cleavage is on record?
A: 0.08

Q: Which self-cleavage does the source give for C37U C42A here?
A: 0.12

Q: Which self-cleavage does the source give for G17C A39G here?
A: 0.1

Q: With G7A C31A as the variant, how does the self-cleavage read?
A: 0.21

Q: For G19A G21U, which self-cleavage is on record?
A: 0.72

Q: With A4G A12G as the variant, how does the self-cleavage read?
A: 0.05

Q: Which self-cleavage does the source give for A6C C18U here?
A: 1.1

Q: For A39G A41G, which self-cleavage is on record?
A: 0.01

Q: For G27A C31U, which self-cleavage is on record?
A: 0.26

Q: With A6C A14C as the variant, how does the self-cleavage read?
A: 0.13

Q: Which self-cleavage does the source give for A6C A14G here?
A: 0.16

Q: With C13A A39G as the variant, how does the self-cleavage read?
A: 0.15

Q: With U9C A39G as the variant, how does the self-cleavage read?
A: 0.02

Q: For A11G G30C, which self-cleavage is on record?
A: 0.04

Q: For G22C U38C, which self-cleavage is on record?
A: 0.68

Q: With G22C U38A as the variant, how does the self-cleavage read?
A: 0.31

Q: With A6U G27C as the variant, how does the self-cleavage read?
A: 0.38

Q: For U34G G35C, which self-cleavage is on record?
A: 0.12

Q: Which self-cleavage does the source give for C23A C42A here?
A: 0.3

Q: Which self-cleavage does the source give for G19A C37U here?
A: 0.05

Q: With U20G U38C as the variant, how does the self-cleavage read?
A: 0.26

Q: For C13A U28C, which self-cleavage is on record?
A: 0.15

Q: With A24U G27A as the variant, how does the self-cleavage read?
A: 0.92

Q: For C31A U32C, which self-cleavage is on record?
A: 0.07

Q: For G40U C46G, which self-cleavage is on record?
A: 0.06

Q: With C18G G30A as the variant, how does the self-cleavage read?
A: 0.92

Q: With G27A U28A as the variant, how does the self-cleavage read?
A: 0.77

Q: With G17U C37G as the variant, how does the self-cleavage read?
A: 0.03

Q: For A6G C42G, which self-cleavage is on record?
A: 0.04

Q: For U20A C42A, which self-cleavage is on record?
A: 0.11

Q: Which self-cleavage does the source give for G17U A39C here?
A: 0.04

Q: Which self-cleavage does the source give for G17U A39G here?
A: 0.04

Q: Which self-cleavage does the source give for A6G C37U here?
A: 0.03

Q: For A11C U38G, which self-cleavage is on record?
A: 0.02

Q: For A39G G40U, which self-cleavage is on record?
A: 0.14

Q: With A12U A39U as the variant, how does the self-cleavage read?
A: 0.16

Q: Which self-cleavage does the source give for G2A A39C here?
A: 0.54

Q: For C15A A24G, which self-cleavage is on record?
A: 0.07

Q: Which self-cleavage does the source give for U9G G33C here?
A: 0.05

Q: Which self-cleavage does the source give for G29C G35U here?
A: 0.06

Q: Which self-cleavage does the source give for U34A G44A here?
A: 0.06

Q: Which self-cleavage does the source give for A12C C15A here?
A: 0.03

Q: With G5A A14U as the variant, how does the self-cleavage read?
A: 0.1

Q: Which self-cleavage does the source give for U20C A24G here?
A: 0.44

Q: For A16C G36A, which self-cleavage is on record?
A: 0.12

Q: With C23G A24G as the variant, how does the self-cleavage read?
A: 0.88

Q: With G2C U32A as the variant, how does the self-cleavage read?
A: 0.17

Q: With A14G U20C as the variant, how does the self-cleavage read?
A: 0.78

Q: With G19A C31A as the variant, how does the self-cleavage read?
A: 0.46

Q: Which self-cleavage does the source give for C8G A41U here?
A: 0.25

Q: With A14C U34C as the variant, how does the self-cleavage read?
A: 0.07

Q: For C8G G33A, which self-cleavage is on record?
A: 0.12

Q: With A16G U32C as the variant, how does the self-cleavage read?
A: 0.26

Q: For C46G, which self-cleavage is on record?
A: 0.99

Q: With G1A U9C as the variant, how does the self-cleavage read?
A: 0.1

Q: Which self-cleavage does the source give for U20G G30U here?
A: 0.47

Q: For G21A G22A, which self-cleavage is on record?
A: 1.3

Q: With G7A C37A as the variant, how does the self-cleavage read?
A: 0.18

Q: Which self-cleavage does the source give for C13G G40A here?
A: 0.13

Q: With G5U G7C as the variant, how does the self-cleavage read?
A: 0.11

Q: For A11C C37U, which self-cleavage is on record?
A: 0.02

Q: For G17U G40C, which self-cleavage is on record?
A: 0.17

Q: With C8U G35U as the variant, how does the self-cleavage read?
A: 0.42

Q: For C10G A12U, which self-cleavage is on record?
A: 0.03

Q: For G33A A39C, which self-cleavage is on record?
A: 0.08

Q: For C8U A14U, which self-cleavage is on record?
A: 0.09

Q: With G1U G5U as the variant, how does the self-cleavage read?
A: 0.09

Q: For G7A A16G, which self-cleavage is on record?
A: 0.28

Q: With G1A U20G as the variant, how does the self-cleavage read?
A: 0.58

Q: Which self-cleavage does the source give for G27U U32A here?
A: 0.07

Q: Which self-cleavage does the source give for A12U G33U here?
A: 0.04

Q: With A39U C46A as the variant, how does the self-cleavage read?
A: 0.75

Q: With U9C C37A as the variant, how does the self-cleavage read?
A: 0.02

Q: With U9A G35U as the variant, how does the self-cleavage read?
A: 0.09

Q: For U9A G44U, which self-cleavage is on record?
A: 0.09

Q: With G7U G40A as the variant, how does the self-cleavage read?
A: 0.16

Q: With G30A G36U as the variant, how does the self-cleavage read?
A: 0.1

Q: Which self-cleavage does the source give for C37G C42A here?
A: 0.09

Q: For C3A U9G, which self-cleavage is on record?
A: 0.57

Q: Which self-cleavage does the source give for A26U U43G here?
A: 0.09

Q: With G29C C31A as the variant, how does the self-cleavage read?
A: 1.34

Q: For A16U C37G, which self-cleavage is on record?
A: 0.07

Q: Which self-cleavage does the source give for G29U U34A here?
A: 0.37

Q: Which self-cleavage does the source give for G7U C23G here?
A: 0.08

Q: With A6C G21C as the variant, how does the self-cleavage read?
A: 0.42

Q: Which self-cleavage does the source give for C18U U20A here?
A: 0.61

Q: For A12G U20A, which self-cleavage is on record?
A: 0.04

Q: With A41U C45G as the variant, how does the self-cleavage read?
A: 0.23

Q: For A11U G35A, which self-cleavage is on record?
A: 0.04

Q: For G19C C45A, which self-cleavage is on record?
A: 0.47

Q: Which self-cleavage does the source give for G21A G29A here?
A: 1

Q: Which self-cleavage does the source give for C23G U38C here?
A: 0.42

Q: With G19U U43A as the variant, how does the self-cleavage read?
A: 0.06

Q: Which self-cleavage does the source give for C13G C45A here?
A: 0.25

Q: Which self-cleavage does the source give for G19C G35U here?
A: 0.07

Q: With G27C C42U as the variant, how does the self-cleavage read?
A: 0.11

Q: For G1C A6U, which self-cleavage is on record?
A: 0.14

Q: With G22U C45G as the variant, how does the self-cleavage read?
A: 0.42

Q: Which self-cleavage does the source give for G5A C37A here?
A: 0.06

Q: With C8A A26G as the variant, how does the self-cleavage read?
A: 0.21

Q: With A16G C46G as the variant, how does the self-cleavage read?
A: 0.68

Q: Which self-cleavage does the source give for G36C C37U here?
A: 0.06

Q: Which self-cleavage does the source give for G22C A39C here?
A: 0.19

Q: For C3A G40C, which self-cleavage is on record?
A: 0.19

Q: Which self-cleavage does the source give for A12U C13A here?
A: 0.21

Q: For C10G C23A, which self-cleavage is on record?
A: 0.08

Q: With C3G U32A as the variant, how does the self-cleavage read?
A: 0.05

Q: For A6G U43A, which self-cleavage is on record?
A: 0.15

Q: For C10G G29C, which self-cleavage is on record?
A: 0.04

Q: Which self-cleavage does the source give for G22U G27A here?
A: 1.04

Q: For A4G A6U, which self-cleavage is on record?
A: 0.27

Q: For A24C A41C, which self-cleavage is on record?
A: 0.04

Q: For A14U A25G, which self-cleavage is on record?
A: 0.1

Q: For G2A G44A, which self-cleavage is on record?
A: 0.49

Q: For G2U C31A, which self-cleavage is on record?
A: 0.04

Q: With U38G C46U as the variant, how does the self-cleavage read?
A: 0.04

Q: For U20C U32A, which self-cleavage is on record?
A: 0.05

Q: With G2A C18U as the variant, how does the self-cleavage read?
A: 0.46

Q: For G21C A39U, which self-cleavage is on record?
A: 0.81

Q: Which self-cleavage does the source give for G40A C45G here?
A: 0.13

Q: For G17C G22U, which self-cleavage is on record?
A: 1.51

Q: Which self-cleavage does the source give for C10A G30U here?
A: 0.09

Q: For G5C U9A, which self-cleavage is on record?
A: 0.12

Q: For C3G C18U, which self-cleavage is on record?
A: 0.54

Q: With C8U U20A as the variant, how does the self-cleavage read?
A: 0.21

Q: For A6G U20G, which self-cleavage is on record?
A: 0.13

Q: For C10U A12U, which self-cleavage is on record?
A: 0.08

Q: For A25C U32G, which self-cleavage is on record?
A: 0.05

Q: With C10U A16U as the variant, how does the self-cleavage read?
A: 0.19

Q: Which self-cleavage does the source give for G1U U20A here?
A: 0.31

Q: Which self-cleavage does the source give for A11G G44U here?
A: 0.01

Q: For G7C U20A, which self-cleavage is on record?
A: 0.06

Q: With G22A U34C as the variant, how does the self-cleavage read?
A: 0.87

Q: For U20A C23U, which self-cleavage is on record?
A: 0.8
